The record followed here is EP3831849A1 (LamKap Bio beta AG, dated 2021).

T1: human CEACAM5 expressed on MKN-45 wt cells (human, UniProt P06731 35-702)
T1 construct: MKN-45 cells also express CD47 and CEACAM6; also called CEACAM5 on MKN45
T1 sequence: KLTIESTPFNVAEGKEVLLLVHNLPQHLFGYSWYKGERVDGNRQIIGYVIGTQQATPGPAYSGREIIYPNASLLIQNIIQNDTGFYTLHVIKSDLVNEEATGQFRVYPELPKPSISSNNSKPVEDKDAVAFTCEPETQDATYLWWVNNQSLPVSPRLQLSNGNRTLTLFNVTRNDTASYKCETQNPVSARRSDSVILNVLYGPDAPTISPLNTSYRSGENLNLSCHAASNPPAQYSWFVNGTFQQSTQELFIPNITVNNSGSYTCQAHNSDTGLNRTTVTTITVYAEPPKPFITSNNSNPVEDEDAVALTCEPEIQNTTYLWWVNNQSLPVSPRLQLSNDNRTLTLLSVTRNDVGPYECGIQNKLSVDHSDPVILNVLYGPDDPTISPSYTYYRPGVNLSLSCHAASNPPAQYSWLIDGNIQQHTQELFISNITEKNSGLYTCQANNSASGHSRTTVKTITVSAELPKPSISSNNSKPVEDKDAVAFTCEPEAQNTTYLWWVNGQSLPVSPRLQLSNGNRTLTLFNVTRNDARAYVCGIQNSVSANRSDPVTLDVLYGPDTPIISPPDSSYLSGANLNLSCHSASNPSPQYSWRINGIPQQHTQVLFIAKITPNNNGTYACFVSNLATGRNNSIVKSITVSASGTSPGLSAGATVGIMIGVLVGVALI

T2: biotinylated recombinant human CEACAM5 (human, UniProt P06731 35-685, biotin on the C-terminal Avitag)
T2 construct: also called CD66e; not shown: C-terminal Avitag plus hexa-histidine tag, human Fc or mouse Fc
T2 sequence: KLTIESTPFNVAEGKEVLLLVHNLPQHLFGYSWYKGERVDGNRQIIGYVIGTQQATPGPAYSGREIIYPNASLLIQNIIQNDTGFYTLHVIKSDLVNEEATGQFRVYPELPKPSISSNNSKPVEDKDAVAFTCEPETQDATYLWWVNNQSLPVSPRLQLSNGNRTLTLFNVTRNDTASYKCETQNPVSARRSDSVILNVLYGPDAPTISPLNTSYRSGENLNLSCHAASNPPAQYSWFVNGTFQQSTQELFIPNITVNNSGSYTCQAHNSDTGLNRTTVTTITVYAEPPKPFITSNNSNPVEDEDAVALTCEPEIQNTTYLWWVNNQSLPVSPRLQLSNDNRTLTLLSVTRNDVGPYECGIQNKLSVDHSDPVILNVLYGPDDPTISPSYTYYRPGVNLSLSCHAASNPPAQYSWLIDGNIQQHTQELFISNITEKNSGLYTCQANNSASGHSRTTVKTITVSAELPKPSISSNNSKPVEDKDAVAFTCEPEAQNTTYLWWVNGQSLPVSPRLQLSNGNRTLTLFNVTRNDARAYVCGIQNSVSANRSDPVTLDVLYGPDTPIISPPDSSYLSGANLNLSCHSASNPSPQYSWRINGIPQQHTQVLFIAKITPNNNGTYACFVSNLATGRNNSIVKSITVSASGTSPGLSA

B1: AC42K2 H-CL1 (bispecific antibody, human IgG1, kappa, lambda)
heavy: not shown
light 1: not shown
light 2: DIQMTQSPSSLSASVGDRVTITCRASQSISSYLNWYQQKPGKAPKLLIYAASSLQSGVPSRFSGSGSGTDFTLTISSLQPEDFATYYCQQMHPRAPKTFGGGTKLTVLGQPKAAPSVTLFPPSSEELQANKATLVCLISDFYPGAVTVAWKADSSPVKAGVETTTPSKQSNNKYAASSYLSLTPEQWKSHRSYSCQVTHEGSTVEKTVAPTECS
notes: CEACAM5xCD47 κλ body, IgG1, common heavy chain; CEACAM arm light chain fully kappa, CD47 arm light chain hybrid
B2: K2AC58 (bispecific antibody, human IgG1, kappa, lambda)
heavy: not shown
light 1: QSVLTQPPSVSGAPGQRVTISCTGSSSNIGVAHDVHWYQQLPGTAPKLLIYDYSERPSGVPDRFSGSKSGTSASLAITGLQAEDEADYYCQSWDNGPNGLVWVFGGGTKLTVLGQPKAAPSVTLFPPSSEELQANKATLVCLISDFYPGAVTVAWKADSSPVKAGVETTTPSKQSNNKYAASSYLSLTPEQWKSHRSYSCQVTHEGSTVEKTVAPTECS
light 2: not shown
B3: K2AC59 (bispecific antibody, human IgG1, kappa, lambda)
heavy: not shown
light 1: B2 light 1 with G96S, P97E, V101I, W102Y
light 2: not shown
B4: AC43 (antibody, human IgG1, kappa, V domains shown)
VH: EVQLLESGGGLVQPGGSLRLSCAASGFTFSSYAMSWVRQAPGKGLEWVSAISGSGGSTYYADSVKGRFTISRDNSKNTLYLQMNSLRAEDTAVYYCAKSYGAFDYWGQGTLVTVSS
VL: DIQMTQSPSSLSASVGDRVTITCQASQNIPRTINWYQQKPGKAPKLLIYDISNLETGVPSRFSGSGSGTDFTFTISSLQPEDIATYYCQQVGLNPELTTFGQGTKVEIKR
notes: Bivalent IgG1 mAb; 6 carries the IgG1 Fc
B5: AC61 (antibody, human IgG1, kappa, V domains shown)
VH: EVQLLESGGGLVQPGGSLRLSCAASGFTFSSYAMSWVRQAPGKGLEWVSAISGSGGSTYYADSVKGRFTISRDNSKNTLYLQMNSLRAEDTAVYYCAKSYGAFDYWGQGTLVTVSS
VL: B4 VL with G92T, N94D, L97E, T98M
notes: as for B4
B6: AC41 (antibody, human IgG1, kappa, V domains shown)
VH: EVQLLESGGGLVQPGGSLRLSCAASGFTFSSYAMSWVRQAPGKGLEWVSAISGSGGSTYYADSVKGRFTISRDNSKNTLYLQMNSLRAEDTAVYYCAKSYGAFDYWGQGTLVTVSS
VL: B4 VL with N28E, P30A, R31A, I33L, D50N, I51Y, N53T, L97N
notes: as for B4
B7: AC42 (antibody, human IgG1, kappa, V domains shown)
VH: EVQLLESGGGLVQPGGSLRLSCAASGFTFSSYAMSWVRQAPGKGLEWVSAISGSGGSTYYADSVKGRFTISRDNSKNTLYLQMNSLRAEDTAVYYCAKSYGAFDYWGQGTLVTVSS
VL: B4 VL with N28R, P30A, I33L, D50N, I51F, N53A, N94D, E96N
notes: as for B4
B8: AC64 (antibody, human IgG1, kappa, V domains shown)
VH: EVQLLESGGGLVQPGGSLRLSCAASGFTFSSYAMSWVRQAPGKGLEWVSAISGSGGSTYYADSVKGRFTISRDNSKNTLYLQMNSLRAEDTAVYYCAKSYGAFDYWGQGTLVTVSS
VL: B4 VL with G92T, N94E, L97E, T98L
notes: as for B4
B9: AC63 (antibody, human IgG1, kappa, V domains shown)
VH: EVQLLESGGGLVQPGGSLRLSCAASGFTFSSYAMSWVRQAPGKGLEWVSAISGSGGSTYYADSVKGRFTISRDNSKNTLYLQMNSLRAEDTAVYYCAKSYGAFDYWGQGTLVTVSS
VL: B4 VL with Q90S, G92T, N94W
notes: as for B4
B10: AC62 (antibody, human IgG1, kappa, V domains shown)
VH: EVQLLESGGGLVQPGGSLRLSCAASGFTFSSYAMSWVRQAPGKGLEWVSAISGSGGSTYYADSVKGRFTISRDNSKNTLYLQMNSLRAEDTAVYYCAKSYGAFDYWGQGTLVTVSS
VL: B4 VL with G92T, N94E
notes: as for B4
B11: AC66 (antibody, human IgG1, kappa, V domains shown)
VH: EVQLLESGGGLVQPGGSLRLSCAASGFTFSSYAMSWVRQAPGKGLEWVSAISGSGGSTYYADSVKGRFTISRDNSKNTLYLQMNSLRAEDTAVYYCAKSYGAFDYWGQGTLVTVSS
VL: B4 VL with G92T, N94D, L97E, T98N
notes: as for B4
B12: AC65 (antibody, human IgG1, kappa, V domains shown)
VH: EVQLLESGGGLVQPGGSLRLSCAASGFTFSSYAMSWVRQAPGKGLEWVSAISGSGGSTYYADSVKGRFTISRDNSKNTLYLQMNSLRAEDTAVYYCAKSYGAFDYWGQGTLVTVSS
VL: B4 VL with Q89G, Q90S, G92T
notes: as for B4
B13: AC60 (antibody, human IgG1, kappa, V domains shown)
VH: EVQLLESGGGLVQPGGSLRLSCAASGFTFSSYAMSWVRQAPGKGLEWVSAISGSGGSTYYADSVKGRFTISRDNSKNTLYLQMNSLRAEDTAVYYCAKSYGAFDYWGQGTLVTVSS
VL: B4 VL with P95W, E96D, L97D, T98R, T99A
notes: Bivalent IgG1 mAb; 6 carries the IgG1 Fc; 167 is the one used in the embodiments
B14: AC45 (antibody, human IgG1, lambda, V domains shown)
VH: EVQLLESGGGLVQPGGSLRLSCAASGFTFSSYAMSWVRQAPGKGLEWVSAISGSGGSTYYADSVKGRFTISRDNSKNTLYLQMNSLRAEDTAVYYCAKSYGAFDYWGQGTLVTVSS
VL: QSVLTQPPSASGTPGQRVTISCSGSSSNIVGVGVNWYQQLPGTAPKLLIYSYNKRPSGVPDRFSGSKSGTSASLAISGLQSEDEADYYCAAYDADMIVPAPVFGGGTKLTVLG
notes: as for B4
B15: AC44 (antibody, human IgG1, lambda, V domains shown)
VH: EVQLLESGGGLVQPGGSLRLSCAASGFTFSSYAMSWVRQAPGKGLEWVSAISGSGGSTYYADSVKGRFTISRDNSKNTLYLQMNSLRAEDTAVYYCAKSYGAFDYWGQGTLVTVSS
VL: B14 VL with A94F, D95L, M96P, I97V, V98L
notes: as for B4

Numbering of substitutions follows the chain as printed.

As usually defined, the EC50 is the midpoint of the concentration-response curve.

The first test addresses T1, human CEACAM5 expressed on MKN-45 wt …. As to the kind of experiment: flow cytometry on MKN-45 wt cells (express CEACAM5 and CD47). (In general: In flow cytometry, cells or beads pass a laser one at a time.)
On to B1, for which the response was half-maximal at 129000 pM (EC50) and the “Emax (MFI)” value was 1.84e+06 MFI.

With B2, it took 20000 pM to reach a half-maximal effect (EC50) and the “Emax (MFI)” value came out at 300000 MFI.

On to B3, for which the EC50 is 26000 pM and the “Emax (MFI)” value was 400000 MFI.

For a further test, the target named is T2, biotinylated recombinant human CEACAM5. In words: ELISA; biotinylated recombinant protein on streptavidin plate; bivalent mAb titrated. (In general: ELISA stands for enzyme-linked immunosorbent assay.)
Take B4: the EC50 amounted to 80 pM.

On to B5, for which the EC50 was determined as 8 pM.

B6: the EC50 was determined as 300 pM.

With B7, the EC50 came out at 100 pM.

Regarding B8, the EC50 was 16 pM.

On to B9, for which the EC50 came out at 16 pM.

As to B10, the EC50 stood at 12 pM.

For the molecule B11, the EC50 is 12 pM.

As to B12, the EC50 was found to be 14 pM.

On to B13, for which the EC50 was 13 pM.

As for B14, the EC50 was 100 pM.

On to B15, for which the concentration for a half-maximal effect (EC50) stood at 90 pM.

For the next test, the target named is T3, recombinant cynomolgus monkey CEACAM5 (cynomolgus monkey (macaca fascicularis)).
T3 construct: also called cyno CEACAM5; cynomolgus CEACAM5
Described as above.
Consider B4, for which the EC50 is 700 pM.

For B5, the EC50 amounted to 20 pM.

For the molecule B6, the EC50 was 600 pM.

B7: the EC50 is 600 pM.

With B8, the EC50 came to 30 pM.

Turning to B9, the EC50 was 20 pM.

Consider B10, for which the EC50 stood at 10 pM.

Regarding B11, the concentration for a half-maximal effect (EC50) was determined as 10 pM.

In the case of B12, the EC50 is 30 pM.

Consider B13, for which the EC50 came out at 60 pM.

In the case of B14, the EC50 stood at 30 pM.

Turning to B15, the EC50 is 70 pM.
